Legend:
[1] = target: T1, human apical domain of CD71 (human, UniProt P02786 189-383, limits assumed); test: primary ELISA; also: test concentration or dose not given here
T1 construct: domain: apical domain

[2] = target: T2, human CD71 extracellular domain (human, UniProt P02786 89-760); test: primary ELISA; also: test concentration or dose not given here
T2 construct: also called hCD71; CD71-ECD

[3] = target: T1, human apical domain of CD71; test: primary ELISA; signal over HSA control; as to RLU: test concentration or dose not given here
[4] = target: T2, human CD71 extracellular domain; test: primary ELISA; signal over HSA control; as to RLU: test concentration or dose not given here
[5] = target: T3, apical domain of human CD71 (human, UniProt P02786 189-383, limits assumed); test: primary ELISA; also: test concentration or dose not given here
T3 construct: domain: apical domain; Screen 4 panned on human apical domains, the ELISA text says only 'apical domain'

[6] = target: T4, human CD71 extracellular domain (human, UniProt P02786 89-760, biotinylated); test: primary ELISA; also: test concentration or dose not given here
T4 construct: also called hCD71; CD71-ECD

[7] = target: T3, apical domain of human CD71; test: primary ELISA, RLU over HSA
[8] = target: T4, human CD71 extracellular domain; test: primary ELISA, RLU over HSA

T1 sequence (P02786 189-383 limits assumed): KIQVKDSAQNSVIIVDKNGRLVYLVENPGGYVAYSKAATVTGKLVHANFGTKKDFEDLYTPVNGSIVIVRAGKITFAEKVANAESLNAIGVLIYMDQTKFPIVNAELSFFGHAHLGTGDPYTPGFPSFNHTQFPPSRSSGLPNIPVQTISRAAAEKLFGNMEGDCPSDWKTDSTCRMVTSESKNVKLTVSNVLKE
T3 sequence (P02786 189-383 limits assumed): as above
T2 sequence (P02786 89-760): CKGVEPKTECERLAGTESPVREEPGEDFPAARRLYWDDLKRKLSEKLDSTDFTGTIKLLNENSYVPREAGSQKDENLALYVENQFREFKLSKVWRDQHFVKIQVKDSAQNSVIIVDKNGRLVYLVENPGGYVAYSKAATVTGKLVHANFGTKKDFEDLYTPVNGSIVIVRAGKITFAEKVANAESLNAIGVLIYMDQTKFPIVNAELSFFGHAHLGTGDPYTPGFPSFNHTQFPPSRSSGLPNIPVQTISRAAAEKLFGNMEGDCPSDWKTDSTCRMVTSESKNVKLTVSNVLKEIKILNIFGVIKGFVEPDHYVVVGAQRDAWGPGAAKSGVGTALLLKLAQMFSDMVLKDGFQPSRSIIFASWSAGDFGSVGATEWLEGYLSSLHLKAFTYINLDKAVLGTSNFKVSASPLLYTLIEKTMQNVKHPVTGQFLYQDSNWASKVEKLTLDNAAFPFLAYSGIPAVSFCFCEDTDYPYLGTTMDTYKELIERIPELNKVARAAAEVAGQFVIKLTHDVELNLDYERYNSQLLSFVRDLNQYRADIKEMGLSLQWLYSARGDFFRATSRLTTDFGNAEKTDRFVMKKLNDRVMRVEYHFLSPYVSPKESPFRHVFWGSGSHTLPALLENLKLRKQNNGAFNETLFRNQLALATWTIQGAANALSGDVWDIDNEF
T4 sequence (P02786 89-760): as above

Binder	RLU [1] [RLU]	RLU [2] [RLU]	Apical domain:HSA [3] [ratio]	hCD71:HSA [4] [ratio]	RLU [5] [RLU]	RLU [6] [RLU]	Apical domain:HSA [7]	hCD71:HSA [8]
CD71-binding FN3 domain SEQ ID NO 397 (designed binder) MLPAPKNLVVSRVTEDSARLSWTAPDAAFDSFIILYGEAQYDGEAIVLTVPGSERSYDLTGLKPGTEYPVDIYGVKGGPYSWPLSAIFTT	5.57e+06	1.65e+06	84	25	–	–	–	–
CD71-binding FN3 domain SEQ ID NO 442 (designed binder) MLPAPKNLVVSRVTEDSARLSWTAPDAAFDSFEIWYAEWRQVGEAIVLTVPGSERSYDLTGLKPGTEYNVDIHGVKGGKVSWPLSAISTT	6.23e+06	4.92e+06	217	172	–	–	–	–
CD71-binding FN3 domain SEQ ID NO 384 (designed binder) MLPAPKNLVVSRVTEDSARLSWTAPDAAFDSFEIDYAENRHHGEAIALLVPGSERSYDLTGLKPGTEYIVFIGGVKGGRWSQPLVASFTT	5.55e+06	2.04e+06	57	21	–	–	–	–
CD71-binding FN3 domain SEQ ID NO 371 (designed binder) MLPAPKNLVVSRVTEDSARLSWTAPDAAFDSFDIDYVEFGWTGEAIALLVPGSERSYDLTGLKPGTEYWVWIGGVKGGDYSPPLNAYFTT	4.4e+06	2.08e+06	95	45	–	–	–	–
CD71-binding FN3 domain SEQ ID NO 379 (designed binder) MLPAPKNLVVSRVTEDSARLSWTAPDAAFDSFYIEYWEGYRSGEAIVLTVPGSERSYDLTGLKPGTEYRVHIWGVKGGAVSYPLSAIFTT	5.13e+06	1.4e+06	239	65	–	–	–	–
CD71-binding FN3 domain SEQ ID NO 406 (designed binder) MLPAPKNLVVSRVTEDSARLSWTAPDAAFDSFFIDYDESLDSGEAIVLTVPGSERSYDLTGLKPGTEYNVTIQGVKGGFPSSPLEAAFTT	3.68e+06	1.42e+06	478	185	–	–	–	–
CD71-binding FN3 domain SEQ ID NO 444 (designed binder) MLPAPKNLVVSRVTEDSARLSWTAPDAAFDSFEIDYVEFIFTGEAIGLIVPGSERSYDLTGLKPGTKYWVTIAGVKGGEWSTPLQAFFTT	5.12e+06	2.8e+06	89	48	–	–	–	–
CD71-binding FN3 domain of SEQ ID NO: 507 (designed binder) MLPAPKNLVVSRVTEDSARLSWTAPDAAFDSFFIGYLEPQPPGEAIHLLVPGSERSYDLTGLKPGTEYNVTIQGVKGGFPSMPLSAIFTT	–	–	–	–	4.83e+06	3.52e+06	245	178
CD71-binding FN3 domain of SEQ ID NO: 461 (designed binder) MLPAPKNLVVSRVTEDSARLSWTAPDAAFDSFFIGYLEPQPPGEAIGLFVPGSERSYDLTGLKPGTEYNVTIQGVKGGFPSMPLSPIFTT	–	–	–	–	5.35e+06	3.77e+06	166	117
CD71-binding FN3 domain of SEQ ID NO: 447 (designed binder) MLPAPKNLVVSRVTEDSARLSWTAPDAAFDSFFIGYLEPQPPGEAIYLYVPGSERSYDLTGLKPGTEYNVTIQGVKGGFPSYPLTAQFTT	–	–	–	–	5.25e+06	5.86e+06	136	152
CD71-binding FN3 domain of SEQ ID NO: 450 (designed binder) MLPAPKNLVVSRVTEDSARLSWTAPDAAFDSFFIGYLEPQPPGEAISLFVPGSERSYDLTGLKPGTEYNVTIQGVKGGFPSEPLAAKFTT	–	–	–	–	6.26e+06	4.1e+06	253	166
CD71-binding FN3 domain of SEQ ID NO: 448 (designed binder) MLPAPKNLVVSRVTEDSARLSWTAPDAAFDSFFIGYLEPQPPGEAIDLYVPGSERSYDLTGLKPGTEYNVTIQGVKGGFPSMPLYARFTT	–	–	–	–	4.76e+06	4.73e+06	74	74
CD71-binding FN3 domain of SEQ ID NO: 453 (designed binder) MLPAPKNLVVSRVTEDSARLSWTAQDAAFDSFFIGYLEPQPPGEAIALLVPGSERSYDLTGLKPGTEYNVTIQGVKGGFPSHPLSASFTT	–	–	–	–	5.12e+06	4.95e+06	147	142
CD71-binding FN3 domain of SEQ ID NO: 457 (designed binder) MLPAPKNLVVSRVTEDSARLSWTAPDAAFDSFFIGYLEPQPPGEAIVLLVPGSERSYDLTGLKPGTEYNVTIQGVKGGFPSAPLVATFTT	–	–	–	–	5.78e+06	5.54e+06	53	51
CD71-binding FN3 domain of SEQ ID NO: 456 (designed binder) MLPAPKNLVVSRVTEDSARLSWTAPDAAFDSFFIGYLEPQPPGEAIALYVPGSERSYDLTGLKPGTEYNVTIQGVKGGFPSHPLQAHFTT	–	–	–	–	4.31e+06	4.5e+06	289	302
CD71-binding FN3 domain of SEQ ID NO: 446 (designed binder) MLPAPKNLVVSRVTEDSARLSWTAPDAAFDSFFIGYLEPQPPGEAIQLFVPGSERSYDLTGLKPGTEYNVTIQGVKGGFPSLPLIAYFTT	–	–	–	–	5.51e+06	4.75e+06	42	37
CD71-binding FN3 domain of SEQ ID NO: 452 (designed binder) MLPAPKNLVVSRVTEDSARLSWTAPDAAFDSFFIGYLEPQPPGEAIHLQVPGSERSYDLTGLKPGTEYNVTIQGVKGGFPSIPLVAQFTT	–	–	–	–	4.23e+06	5.24e+06	71	88
CD71-binding FN3 domain of SEQ ID NO: 459 (designed binder) MLPAPKNLVVSRVTEDSARLSWTAPDAAFDSFFIRYLEPQPPGEAIHLSVPGSERSYDLTGLKPGTEYNVTIQGVKGGFPSMPLYAIFTT	–	–	–	–	2.61e+06	2.5e+06	199	191
CD71-binding FN3 domain of SEQ ID NO: 454 (designed binder) MLPAPKNLVVSRVTEDSARLSWTAPDAAFDSFFIGYLEPQPPGEAINLTVPGSERSYDLTGLKPGTEYNVTIQGVKGGFPSYPLQASFTT	–	–	–	–	4.2e+06	4.18e+06	227	226
CD71-binding FN3 domain of SEQ ID NO: 460 (designed binder) MLPAPKNLVVSRVTEDSARLSWTAPDAAFDSFFIGYLEPQPPGEAISLYVPGSERSYDQTGLKPGTEYNVTIQGVKGGFPSDPLSARFTT	–	–	–	–	2.8e+06	2.69e+06	148	143
CD71-binding FN3 domain of SEQ ID NO: 451 (designed binder) MLPAPKNLVVSRVTEDSARLSWTAPDAAFDSFFIGYLEPQPPGEAIGLLVPGSERSYDLTGLKPGTEYNVTIQGVKGGFPSIPLVADFTT	–	–	–	–	6.08e+06	5.23e+06	151	129
CD71-binding FN3 domain of SEQ ID NO: 449 (designed binder) MLPAPKNLVVSRVTEDSARLSWTAPDAAFDSFYIAYQELSLWGEAIVLTVPGSERSYDLTGLKPGTEYNVTIQGVKGGFPSLPLAAQFTT	–	–	–	–	6.51e+06	6.75e+06	66	69
CD71-binding FN3 domain SEQ ID NO 362 (designed binder) MLPAPKNLVVSRVTEDSARLSWTAPDAAFDSFEIAYWENNFNGEAIILIVPGSERSYDLTGLKPGTEYVVFISGVKGGTWSYPLVAQFTT	4.86e+06	2.24e+06	102	47	–	–	–	–
CD71-binding FN3 domain SEQ ID NO 402 (designed binder) MLPAPKNLVVSRVTEDSARLSWTAPDAAFDSFGIYYWEYTGGEAIVLTVPGSERSYDLTGLKPGTEYVVRILGVKGGAYSTPLSAIFTT	4.77e+06	2.17e+06	459	209	–	–	–	–

— US20260151494A1 (ARO BIOTHERAPEUTICS, published 2026)
